According to paper PMC5034536, “Molecular insights into substrate recognition and catalytic mechanism of the chaperone and FKBP peptidyl-prolyl isomerase SlyD” (BMC Biology, 2016):
Where two headings read alike, the source gives them in different places.

Experiments:
[1] = molecular target: full-length SlyD from Thermus thermophilus (TtSlyDFL) (Thermus thermophilus)
[2] = molecular target: chimeric TtSlyD construct in which the IF domain is replaced by the flap loop from human FKBP12 (TtSlyDΔIF) (Thermus thermophilus | human) (UniProt P62942)
[3] = molecular target: chimeric TtSlyD construct in which the IF domain is replaced by the flap loop from human FKBP12 (TtSlyDΔIF) (Thermus thermophilus | human) (UniProt P62942); remark: listed apart in the source
[4] = molecular target: TtSlyDFL Y63F (Thermus thermophilus)
[5] = molecular target: chimeric TtSlyD construct in which the IF domain is replaced by the flap loop from human FKBP12 (TtSlyDΔIF) (Thermus thermophilus | human) (UniProt P62942); remark: listed apart in the source
[6] = molecular target: full-length SlyD from Thermus thermophilus (TtSlyDFL) (Thermus thermophilus); remark: listed apart in the source
[7] = molecular target: chimeric TtSlyD construct in which the IF domain is replaced by the flap loop from human FKBP12 (TtSlyDΔIF) (Thermus thermophilus | human) (UniProt P62942); remark: listed apart in the source
[8] = molecular target: full-length SlyD from Thermus thermophilus (TtSlyDFL) (Thermus thermophilus); remark: listed apart in the source
[9] = molecular target: full-length SlyD from Thermus thermophilus (TtSlyDFL) (Thermus thermophilus); remark: listed apart in the source
[10] = molecular target: chimeric TtSlyD construct in which the IF domain is replaced by the flap loop from human FKBP12 (TtSlyDΔIF) (Thermus thermophilus | human) (UniProt P62942); remark: listed apart in the source

Substance | KD1 (site 1, IF domain) [1] [µM] | KD2 (site 2, FKBP domain) [1] [µM] | N1 (site 1, IF domain) [1] | N2 (site 2, FKBP domain) [1] | dH1 (site 1, IF domain) [1] [kcal/mol] | dH2 (site 2, FKBP domain) [1] [kcal/mol] | Kd [3] [µM] | dH [3] [kcal/mol] | stoichiometry N [3] | KD1 (site 1, IF domain) [9] [µM] | KD2 (site 2, FKBP domain) [9] [µM] | N1 (site 1, IF domain) [9] | N2 (site 2, FKBP domain) [9] | dH1 (site 1, IF domain) [9] [kcal/mol] | dH2 (site 2, FKBP domain) [9] [kcal/mol] | also measured
S2-P25A peptide (from UniProt P0A7V0 20-34) |  |  |  |  |  |  | 12.1 | -11.7 | 0.91 | 0.129 | 7.04 | 0.92 | 1.02 | -16.6 | -8.5 | kcat/KM of peptidyl-prolyl cis/trans isomerization of the S2-P25A peptide, NMR lineshape analysis, 25 °C, 0.2 μM enzyme [5]: 2.48e+08 M⁻¹ s⁻¹; kcat/KM of peptidyl-prolyl cis/trans isomerization of the S2-P25A peptide, NMR lineshape analysis, 25 °C, 0.2 μM enzyme, peptide 10–1000 μM [6]: 3.68e+08 M⁻¹ s⁻¹; kcat/KM of peptidyl-prolyl cis/trans isomerization of the S2-P25A peptide, NMR lineshape analysis, 25 °C, 0.2 μM enzyme [7]: 2.84e+08 M⁻¹ s⁻¹; KM of peptidyl-prolyl cis/trans isomerization of the S2-P25A peptide (cis form), Michaelis-Menten fit of NMR lineshape data, 25 °C [8]: 2000 µM
S2-W23A peptide (from UniProt P0A7V0 20-34) |  |  |  |  |  |  | 17.1 | -8.1 | 0.77 | 0.855 | 18.8 | 0.76 | 0.91 | -15.8 | -2.3 | 
SlpA linker P5T peptide |  |  |  |  |  |  |  |  |  |  |  |  |  |  |  | Kd [9]: 130 µM; dH [9]: -0.9 kcal/mol; stoichiometry N [9]: 1.76

Further lines, with some results ahead:

KD1 (site 1, IF domain) [1] [µM] | KD2 (site 2, FKBP domain) [1] [µM] | N1 (site 1, IF domain) [1] | N2 (site 2, FKBP domain) [1] | dH1 (site 1, IF domain) [1] [kcal/mol] | dH2 (site 2, FKBP domain) [1] [kcal/mol] | Kd [3] [µM] | dH [3] [kcal/mol] | stoichiometry N [3] | KD1 (site 1, IF domain) [9] [µM] | KD2 (site 2, FKBP domain) [9] [µM] | N1 (site 1, IF domain) [9] | N2 (site 2, FKBP domain) [9] | dH1 (site 1, IF domain) [9] [kcal/mol] | dH2 (site 2, FKBP domain) [9] [kcal/mol] | Substance | also measured
0.15 | 3.16 | 0.98 | 1.05 | -14.8 | -8.9 | 14.4 | -10 | 0.91 |  |  |  |  |  |  | S2 peptide | Kd [2]: 12.2 µM; dH [2]: -5.9 kcal/mol; stoichiometry N [2]: 0.88; KD1 (site 1, IF domain) [4]: 0.03 µM; KD2 (site 2, FKBP domain) [4]: 1.58 µM; N1 (site 1, IF domain) [4]: 0.81; N2 (site 2, FKBP domain) [4]: 0.78; dH1 (site 1, IF domain) [4]: -11.3 kcal/mol; dH2 (site 2, FKBP domain) [4]: -6 kcal/mol
1.45 | 44 | 1.13 | 1.09 | -14.1 | -5.9 |  |  |  |  |  |  |  |  |  | S2-P25A/P29E peptide (from UniProt P0A7V0 20-34) | Kd [10]: 29 µM; dH [10]: -6.3 kcal/mol; stoichiometry N [10]: 0.84
0.234 | 8.33 | 0.93 | 1.18 | -16.8 | -2.3 |  |  |  |  |  |  |  |  |  | S2-P25N/P29N peptide (from UniProt P0A7V0 20-34) | 
 |  |  |  |  |  | 13.8 | -10.8 | 0.69 | 0.513 | 5.68 | 0.88 | 1.02 | -15.8 | -2.7 | S2-P29E peptide (from UniProt P0A7V0 20-34) | 
